Source: the supplement of paper PMC9170038

Test system: MS2 coat protein
Experiment: apparent KD of MS2 coat protein; designed switch direction (-1 OFF switch, 1 ON switch): -1; higher = weaker reporter binding
Summary of the method: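 For each design, the apparent KD is the median over clusters of curves fitted to normalised cluster fluorescence. Clusters held RNA switches with common flanks, transcribed on Illumina chips by stalled E. coli RNA polymerase. These were titrated with SNAP-549-labelled MS2 coat protein, doubling from 0.7 or 1.5 nM to 3 µM, without input, with 200 uM small-molecule ligand, or with an oligonucleotide input.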

[1] = Eterna round: R95, input ligand: microRNA oligo, concentration not stated
[2] = input ligand: microRNA oligo, concentration not stated

| Sequence | apparent KD of MS2 coat protein (input ligand: FMN 200 uM) | apparent KD of MS2 coat protein (input ligand: none) | other results |
| --- | --- | --- | --- |
| AUCCCUUGAGUAAGGAUAUGGCCAGGGAGGUCUGGCCAGAAGGUACAUGAGGAUCACCCAUGUAGGUUGUCGCA [Eternabot (L2) Solution 44] (Eterna round: R97, puzzle: Brourd's mod of Exclusion 4) | 56 nM | 20.6 nM |  |
| CACAUGUCAGGAUAUGGUCAAGACACAGAAUUAGCUGCGAGCCAGAAGGGACAUGAGGAUCACCCAUGUUCCUG [Eternabot (L1) Solution 58] (Eterna round: R97, puzzle: Exclusion 4) | 19.5 nM | 16.3 nM |  |
| CCAUACUGUAAGCUUCCCAACAUGAGGAUCACCCAUGUGGACCACGGCUUCGGUCAGCUAACCUGCUCGUCGUUGAU [Eternabot (L2) Solution 31] (Eterna round: R97, puzzle: Sensor, turn-off variant 1) | 15.2 nM | 16.9 nM |  |
| UUCUAUUCAGGAUAUACAUGAGGAUCACCCAUGUGAUUUGCCUCGCGGAAGACUAGACGUAGAAGGGAGUCCCU [Eternabot (L2) Solution 7] (Eterna round: R97, puzzle: Exclusion 3) | 91.3 nM | 111 nM |  |
| UUUCAACAUGAGGAUCACCCAUGUCAGGAUAUCAUUUAGCUCAUACACUUACCAUCAUUGAGAAGGGACAUGCU [Colors] (Eterna round: R97, puzzle: Exclusion 1) | 15.7 nM | 19 nM |  |
| UAGAAUCGAGGAUAUACAUGAGGAUCACCCAUGUGUGGCCACUUGGUGUGGUCGUCAGGUAGAAGGCGAUUACA [Exclusion 3 - Mod of Jieux's Gilly Gone Silly 23 v.4] (puzzle: Exclusion 3) |  |  | apparent KD of MS2 coat protein (Eterna round: R95, input ligand: FMN 200 uM): 26.9 nM; apparent KD of MS2 coat protein [1]: 30.9 nM; apparent KD of MS2 coat protein (Eterna round: R95, input ligand: none): 39.4 nM |
| AUAAUGUGAGGAUAUCACGCCCAAAUAAAUGGGCGAAAUAAUGAGAAGGCACAUGAGGAUCACCCAUGUCCGAA [EX4 A.25] (Eterna round: R97, puzzle: Exclusion 4) | 180 nM | 33.5 nM |  |
| GCAGGAUAAGUGAGGAUAUACCUCUGGAUACAGAGGUAGAAGGCACAUGAGGAUCACCCAUGUCUAUAACCUGC [Fiskers BMX 4 - 79] (puzzle: Brourd's mod of Exclusion 4) |  |  | apparent KD of MS2 coat protein [1]: 12.5 nM |
| CAUAUAGUAGUGAGGAUAUGCGAAUAUAUAAUUAAGUAGAAGGCACAUGAGGAUCACCCAUGUAUAUUGUAAAG [EX-4 Malc] (puzzle: Brourd's mod of Exclusion 4) |  |  | apparent KD of MS2 coat protein [1]: 18.9 nM |
| AUAUUACAUGAGGAUCACCCAUGUGAGGAUAUGGAGAGAGACCGCCCGGUCGCGUACACCAGAAGGCGCAGGCG [1st #60] (Eterna round: R97, puzzle: Exclusion 1) | 19.8 nM | 21.2 nM |  |
| GGCUGCAAUGUAGGAUAUCUGCACGUUUAGUGCAGAGAAGGACAUGAGGAUCACCCAUGUAUAGUAGCUUCGGCUACAGCAGCC [ENG1-D2] (Eterna round: R96, puzzle: Exclusion NG 1) | 18.4 nM | 17.2 nM | apparent KD of MS2 coat protein [2]: 11.4 nM |
| CCCUCGGGAGGAUAUGGGUGUUUUUACAUGAGGAUCACCCAUGUAGAGUAAUAUGUGGGUCCAGAAGGCCCAAGGG [-26, -24.7 kcal, 25% A] (Eterna round: R97, puzzle: Exclusion 5) | 86.9 nM | 210 nM |  |
| GAUUAGAUAGGAUAUACAGGCUCGUCUUUAUAUUGAUCCCGACAUGAGGAUCACCCAUGUAGAAGGAUUAGAUU [Mod 30 - Jieux - Exclusion 2] (Eterna round: R97, puzzle: Exclusion 2) | 25.7 nM | 26.6 nM |  |
| CUGCUGGAGCUUUGCUUUGGUCGUACAUGAGGAUCACCCAUGUAGGAUAUGGUAAAAUUUGCUUGCUAGAAGGAUAGAGUGGUC [salish99_ExNG3_r04_612] (Eterna round: R96, puzzle: Exclusion NG 3) | 88.1 nM | 42.4 nM | apparent KD of MS2 coat protein [2]: 34.3 nM |
| GAAUUGUGAGGAUAUUAGUUGUACGUCAAUAGACGUAUAAGUGAGAAGGCACAUGAGGAUCACCCAUGUUCCUG [salish99_ex4_r4_401] (Eterna round: R97, puzzle: Exclusion 4) | 57.8 nM | 19.4 nM |  |
| ACAAGCUUUUAGAUUUUCAACAUGAGGAUCACCCAUGUUCGUCUUAUGCUAGUGCUAGUGCGGUGUACUGGUAUUAG [JL TOV1 3.80 sellena mod] (Eterna round: R97, puzzle: Sensor, turn-off variant 1) | 16.9 nM | 16 nM |  |
| CUUGUGUAAGGAUAUCGAGUAGAACGCUCGAGUUCUGAGCUCGAGAAGGUACAUGAGGAUCACCCAUGUUAAAA [Atusgete] (puzzle: Exclusion 4) |  |  | apparent KD of MS2 coat protein [1]: 42.2 nM |
| AGCGAGGCAGGAUAUACAUGAGGAUCACCCAUGUGCUUGCAUGGCGUGGGACGUCAACGUAGAAGGGCCAUGCC [EX3 #68] (Eterna round: R97, puzzle: Exclusion 3) | 76.3 nM | 117 nM |  |
| GAGGAUGUAGGAUAUACUUAGGGUGAGCUCUAAGUGAAUCAACAUGAGGAUCACCCAUGUAGAAGGGCAGGACG [Eternabot (Original) Solution 37] (Eterna round: R97, puzzle: Exclusion 2) | 248 nM | 122 nM |  |
| AAUUAGUAUGUGAGGAUAUUGAUGUAAUGACGGUUUAAGAAGGCACAUGAGGAUCACCCAUGUAGGUGCUCACG [JR_BMEx4_Sub007] (Eterna round: R97, puzzle: Brourd's mod of Exclusion 4) | 380 nM | 70.4 nM |  |
| GUUGUGUAAGGAUAUGCCUGGCCGUGAGGCCAGAUUGAAUAGCAGAAGGUACAUGAGGAUCACCCAUGUACGGG [salish99_ex4_4_001] (Eterna round: R97, puzzle: Exclusion 4) | 109 nM | 22.7 nM |  |
| AAAUAUCAUGUAGGAUAUGGUAGGCGAACCUUACCAGAAGGACAUGAGGAUCACCCAUGUGCUGAGUUGUCCGUAGACAGCUCU [Ex NG1 #4] (Eterna round: R96, puzzle: Exclusion NG 1) | 74.1 nM | 78.7 nM | apparent KD of MS2 coat protein [2]: 63.7 nM |
| GCAAGCUUUUGCUCGUCUUACAUGAGGAUCACCCAUGUCGGGCCCGGGCUUCGUGGCCGGGCCCGCCGGGCGCCGGG [-37, -64.6 kcal, A 10%] (Eterna round: R97, puzzle: Sensor, turn-off variant 1) | 56.5 nM | 70.4 nM |  |
| AUCGUGUGAGGAUAUCGAUCAUGGAGGUCUAGGUCCAUGCGCGAGAAGGCACAUGAGGAUCACCCAUGUAAUGG [jl-ex4-4.30 ViennaUCT mod] (Eterna round: R97, puzzle: Exclusion 4) | 65.3 nM | 66.5 nM |  |
| CAAUUCCGAGGAUAUACAUGAGGAUCACCCAUGUCGGGCCUCAGCGUUUAGCGCCUCAGUAGAAGGCGGGUUUC [JL Riri mod 3] (puzzle: Exclusion 3) |  |  | apparent KD of MS2 coat protein [1]: 24.4 nM |
| UCUCGCUGGCGAGGAUAUCCUGUGCGGUUCCGGCUCGUGUCUGUUACAUGAGGAUCACCCAUGUGGGAGAAGGUGCCUGUGGCC [Design 95] (Eterna round: R96, puzzle: Exclusion NG 2) | 21.1 nM | 21 nM | apparent KD of MS2 coat protein [2]: 15.6 nM |
